Laboratory results as given in US5876949, “Antibodies specific for fragile X related proteins and method of using the same” (The Trustees of the University of Pennsylvania, dated 1999).

Target: GAL4(1-147)-FMR1, FMR1 fused to the DNA binding domain of the yeast transcription factor GAL4 (plasmid … (yeast; human, UniProt P04386)
Assay: yeast two-hybrid, HIS3 and LacZ reporters in HF7C

B1: GAL4 activation domain alone (empty vector pGAD424) (other)
chain: ANFNQSGNIADSSLSFTFTNSSNGPNLITTQTNSQALSQPIASSNVHDNFMNNEITASKIDDGNNSKPLSPGWTDQTAYNAFGITTGMFNTTTMDDVYNYLFDDEDTPPNPKKE
B1: no binding.
